From article PMC7842262

Tested on: HIV-1 Rev (HIV-1)
Assay: EMSA
Conditions: scale: fold more Rev than RRE for 50% unbound RNA

For 433-mer RcRE (K-RRE), which binding signal is on record?
The binding signal was 8.
